The values below come from paper PMC3474736, “Structural Characterization of the Enzymes Composing the Arginine Deiminase Pathway in Mycoplasma penetrans” (PLoS ONE, 2012).

Holding throughout (experiment): SEC; HiLoad Superdex 200 26/60 gel-filtration column, 50 mM NaCl, 20 mM Tris-HCl pH 8.0; oligomeric state read from the elution
A general note: In gel filtration, larger molecules generally elute earlier.

The target in data set [1] is carbamate kinase (CK) from Mycoplasma penetrans (Mycoplasma penetrans).
Data set [2] has as its target short-ADI (arginine deiminase from Mycoplasma penetrans, form initiating at Met43 and ending at Lys452) (Mycoplasma penetrans).
Data set [3] deals with the molecule itself.

For “carbamate kinase (CK) from Mycoplasma penetrans (enzyme)”, the stoichiometry N in data set [1] was found to be 2. In data set [2], “short-ADI (arginine deiminase from Mycoplasma penetrans, form initiating at Met43 and ending at Lys452) (enzyme)” gave a stoichiometry N of 2.

B1: ornithine carbamoyltransferase (OTC) from Mycoplasma penetrans (enzyme, UniProt Q8EVF5 1-342, looked up)
chain: MPVNLKGRSLDSLLNFTTEEVQHLIDLSIDLKKAKYQGLHINNRPLVGKNIAILFQKDSTRTRCAFEVAASDLGAGVTYIGPSGSNMGKKESIEDTAKVLGRFYDGIEFRGFAQSDVDALVKYSGVPVWNGLTDDEHPTQIIADFMTMKEKFGNLKNKKIVFIGDYKNNVGVSTMIGAAFNGMHVVMCGPDNYKNEIDKNVLAKCIELFKRNGGSLRFSTDKILAAQDADVIYTDVWVSLGEPFELFDKRIGELKNFQVDMNMIKAAKNDVIFLHCLPAFHDDHTSFSKEVATTLGAKYPIVAKGEMEVTDEVFQSLHNKAFDQAENRMHSIKAIILSTIGY
notes: ornithine carbamoyltransferase (OTC, EC 2.1.3.3), arcB gene product of Mycoplasma penetrans strain GTU-54; traced from Met1 to Tyr342; TGA codons for Trp129 and Trp237 changed to TGG (no change of the amino acids); Dodecamer of four catalytic homotrimers; also called MpOTC; ornitine transcarbamylase; copies: 12
Regarding B1, the “stoichiometry N” value in data set [3] was 12.

What is called stoichiometry N is the number of molecules, sites or subunits per partner or assembly.
